Assay results: patent US12467929

Columns and labels:
[1] = molecular target: recombinant UBE3A protein (Homo sapiens (Human)) (UniProt Q05086); experiment: 2-step Simoa; capture GTX; UBE3A 31.3 ng/ml
[2] = molecular target: recombinant UBE3A protein (Homo sapiens (Human)) (UniProt Q05086); experiment: Simoa head-to-head, Table 11; capture MS 2F6; UBE3A 0.80 ng/ml
[3] = molecular target: recombinant UBE3A protein (Homo sapiens (Human)) (UniProt Q05086); experiment: Simoa; capture GTX; SBG 75 pm; UBE3A 0.800 ng/ml
[4] = molecular target: recombinant UBE3A protein (Homo sapiens (Human)) (UniProt Q05086); experiment: Simoa; capture GTX + helper beads; 3E5 0.1 ug/ml; UBE3A 4.00 ng/ml
[5] = molecular target: recombinant UBE3A protein (Homo sapiens (Human)) (UniProt Q05086); experiment: Simoa; capture GTX, no helper beads; 3E5 0.4 ug/ml; UBE3A 0.00640 ng/ml
[6] = molecular target: recombinant UBE3A protein (Homo sapiens (Human)) (UniProt Q05086); experiment: Simoa; capture GTX, no helper beads; 3E5 0.1 ug/ml; UBE3A 0.800 ng/ml
[7] = molecular target: recombinant UBE3A protein (Homo sapiens (Human)) (UniProt Q05086); experiment: Simoa; capture GTX; 3E5 0.1 ug/ml; UBE3A 20.0 ng/ml
[8] = molecular target: recombinant UBE3A protein (Homo sapiens (Human)) (UniProt Q05086); experiment: Simoa head-to-head, Table 11; capture MS 2F6; UBE3A 4.00 ng/ml
[9] = molecular target: recombinant UBE3A protein (Homo sapiens (Human)) (UniProt Q05086); experiment: Simoa; capture GTX; 3E5 0.1 ug/ml; UBE3A 0.00640 ng/ml
[10] = molecular target: recombinant UBE3A protein (Homo sapiens (Human)) (UniProt Q05086); experiment: Simoa head-to-head, Table 10; capture MS 2F6; UBE3A 4.00 ng/ml
[11] = molecular target: recombinant UBE3A protein (Homo sapiens (Human)) (UniProt Q05086); experiment: Simoa; capture GTX; SBG 75 pm; UBE3A 0.00640 ng/ml
[12] = molecular target: recombinant UBE3A protein (Homo sapiens (Human)) (UniProt Q05086); experiment: Simoa; capture GTX; 3E5 0.8 ug/ml; UBE3A 20.0 ng/ml
[13] = molecular target: recombinant UBE3A protein (Homo sapiens (Human)) (UniProt Q05086); experiment: Simoa; capture GTX, no helper beads; 3E5 0.2 ug/ml; UBE3A 4.00 ng/ml
[14] = molecular target: recombinant UBE3A protein (Homo sapiens (Human)) (UniProt Q05086); experiment: Simoa head-to-head, Table 11; capture GTX; UBE3A 0.032 ng/ml
[15] = molecular target: recombinant UBE3A protein (Homo sapiens (Human)) (UniProt Q05086); experiment: Simoa; capture GTX; 3E5 0.4 ug/ml; UBE3A 0.0320 ng/ml
[16] = molecular target: recombinant UBE3A protein (Homo sapiens (Human)) (UniProt Q05086); experiment: 3-step Simoa, 120 min bead step; capture GTX; UBE3A 0.0320 ng/ml
[17] = molecular target: recombinant UBE3A protein (Homo sapiens (Human)) (UniProt Q05086); experiment: Simoa; capture GTX; 3E5 0.8 ug/ml; UBE3A 0.00128 ng/ml
[18] = molecular target: recombinant UBE3A protein (Homo sapiens (Human)) (UniProt Q05086); experiment: Simoa; capture GTX; SBG 100 pm; UBE3A 0.0320 ng/ml
[19] = molecular target: recombinant UBE3A protein (Homo sapiens (Human)) (UniProt Q05086); experiment: Simoa; capture GTX; SBG 150 pm; UBE3A 0.00640 ng/ml
[20] = molecular target: recombinant UBE3A protein (Homo sapiens (Human)) (UniProt Q05086); experiment: Simoa; capture GTX + helper beads; 3E5 0.2 ug/ml; UBE3A 20.0 ng/ml

Chain of UniProt Q05086 (Q05086 whole entry): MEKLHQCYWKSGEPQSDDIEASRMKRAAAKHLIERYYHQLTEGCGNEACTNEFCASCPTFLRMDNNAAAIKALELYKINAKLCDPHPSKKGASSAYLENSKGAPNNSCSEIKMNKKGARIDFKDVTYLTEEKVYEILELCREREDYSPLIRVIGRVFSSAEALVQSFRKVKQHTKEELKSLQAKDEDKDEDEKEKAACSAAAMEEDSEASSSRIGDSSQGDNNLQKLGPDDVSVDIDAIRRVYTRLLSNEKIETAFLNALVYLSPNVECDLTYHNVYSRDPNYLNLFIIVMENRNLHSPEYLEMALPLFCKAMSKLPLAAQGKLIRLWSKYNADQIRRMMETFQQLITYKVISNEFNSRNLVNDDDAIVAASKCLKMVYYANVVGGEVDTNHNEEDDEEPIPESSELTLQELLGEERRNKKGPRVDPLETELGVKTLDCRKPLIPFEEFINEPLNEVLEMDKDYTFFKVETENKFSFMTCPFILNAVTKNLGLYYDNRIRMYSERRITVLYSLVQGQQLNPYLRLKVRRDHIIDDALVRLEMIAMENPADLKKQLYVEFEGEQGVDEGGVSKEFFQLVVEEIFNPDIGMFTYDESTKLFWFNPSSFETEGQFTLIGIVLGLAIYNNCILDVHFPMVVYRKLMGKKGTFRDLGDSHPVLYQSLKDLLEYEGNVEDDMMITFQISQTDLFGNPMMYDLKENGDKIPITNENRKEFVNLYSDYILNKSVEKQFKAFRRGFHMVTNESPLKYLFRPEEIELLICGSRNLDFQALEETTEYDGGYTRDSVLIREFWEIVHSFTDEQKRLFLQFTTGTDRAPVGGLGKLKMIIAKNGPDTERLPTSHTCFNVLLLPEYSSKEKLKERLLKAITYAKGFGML

In the case of NB500-240 (Novus) (antibody), the AEB1 [1] was 0.141, the AEB2 [1] was 0.126 and the Ave AEB [1] was 0.134. It also gave a Signal to Background [1] of 40.8.
For “anti-UBE3A antibody 3E5 (SAB1404508-100 ug, Millipore-Sigma)”, the AEB1 [2] was 0.0183, the AEB2 [2] was 0.0197 and the Ave AEB [2] was 0.019. It also gave a Signal to Background [2] of 5.03, an AEB1 [3] of 0.078 and an AEB2 [3] of 0.115. For the same substance, the AEB3 [3] was 0.126, the Average AEB [3] was 0.106 and the Signal to Background [3] was 24.3. The AEB1 [4] was 0.639, the AEB2 [4] was 0.606 and the Average AEB [4] was 0.623. It also gave a Signal to Background [4] of 109, an AEB1 [5] of 0.0228 and an AEB2 [5] of 0.0232. The Average AEB [5] was 0.023, the Signal to Background [5] was 1.18 and the AEB1 [6] was 0.164. The AEB2 [6] was 0.157, the Average AEB [6] was 0.16 and the Signal to Background [6] was 27.9. It also gave an AEB1 [7] of 5.11, an AEB2 [7] of 5.62 and an AEB3 [7] of 5.2. For the same substance, the Average AEB [7] was 5.31, the Signal to Background [7] was 276 and the AEB1 [8] was 0.0868. It also gave an AEB2 [8] of 0.0803, an Ave AEB [8] of 0.0836 and a Signal to Background [8] of 22.1. The AEB1 [9] was 0.0251, the AEB2 [9] was 0.0238 and the AEB3 [9] was 0.0256. The Average AEB [9] was 0.0248, the Signal to Background [9] was 1.29 and the AEB1 [10] was 0.132. The AEB2 [10] was 0.127, the Ave AEB [10] was 0.13 and the Signal to Background [10] was 9.58. It also gave an AEB1 [11] of 0.0059, an AEB2 [11] of 0.0047 and an AEB3 [11] of 0.0074. It also gave an Average AEB [11] of 0.006, a Signal to Background [11] of 1.36 and an AEB1 [12] of 9.16. It also gave an AEB2 [12] of 10.3, an AEB3 [12] of 9.37 and an Average AEB [12] of 9.62. It also gave a Signal to Background [12] of 78.5, an AEB1 [13] of 0.878 and an AEB2 [13] of 0.851. For the same substance, the Average AEB [13] was 0.864, the Signal to Background [13] was 89.4 and the AEB1 [14] was 0.0127. For the same substance, the AEB2 [14] was 0.0142, the Ave AEB [14] was 0.0135 and the Signal to Background [14] was 1.65. For the same substance, the AEB1 [15] was 0.0958, the AEB2 [15] was 0.0924 and the AEB3 [15] was 0.095. For the same substance, the Average AEB [15] was 0.0944, the Signal to Background [15] was 1.51 and the AEB1 [16] was 0.0115. It also gave an AEB2 [16] of 0.0095, an Ave AEB [16] of 0.0105 and a Signal to Background [16] of 6.15. It also gave an AEB1 [17] of 0.109, an AEB2 [17] of 0.109 and an AEB3 [17] of 0.112. For the same substance, the Average AEB [17] was 0.11, the Signal to Background [17] was 0.897 and the AEB1 [18] was 0.0199. The AEB2 [18] was 0.0201, the AEB3 [18] was 0.0192 and the Average AEB [18] was 0.0197. It also gave a Signal to Background [18] of 2.35, an AEB1 [19] of 0.0136 and an AEB2 [19] of 0.0149. It also gave an AEB3 [19] of 0.014, an Average AEB [19] of 0.0142 and a Signal to Background [19] of 1.07. The AEB1 [20] was 5.63, the AEB2 [20] was 5.39 and the Average AEB [20] was 5.51. The Signal to Background [20] was 570.
